{
  "source": "patent US20210238276A1",
  "about": "(INTEGRAL MOLECULAR, published 2021)",
  "binders": {"B1": {"name": "AB102 (Fc fusion)", "scFv": "ALTQPSSVSANLGGTVKITCSGGGSYGYGWYQQKSPGSAPVTVIYSNDQRPSDIPSRFSGSKSGSTATLTITGVRAEDEAIYYCGSTDSDYVGIFGAGTTLTVLGQSSRSSGGGGSSGGGGSAVTLDESGGGLQTPGGTLSLVCKASGFDFSSYATIWVRQAPGKGLEWVAGISGTGTGSSTGYAPAVKGRATISRDNGQSTVRLQLNNLRAEDTGSYFCAKSTGYGDSWIYPDSIDAWGHGTEVIVSS", "notes": "also called MAb AB102; not shown: Fc fragment of human IgG1, cloned in frame with the scFv"}},
  "assay_in_all_cases": "flow cytometry, alanine-scan library in HEK-293T, with cytochalasin B",
  "key": {"hsGLUT4 S310A": {"target": "T1, hsGLUT4 S310A (human, UniProt P14672 1-509)", "T1 sequence": "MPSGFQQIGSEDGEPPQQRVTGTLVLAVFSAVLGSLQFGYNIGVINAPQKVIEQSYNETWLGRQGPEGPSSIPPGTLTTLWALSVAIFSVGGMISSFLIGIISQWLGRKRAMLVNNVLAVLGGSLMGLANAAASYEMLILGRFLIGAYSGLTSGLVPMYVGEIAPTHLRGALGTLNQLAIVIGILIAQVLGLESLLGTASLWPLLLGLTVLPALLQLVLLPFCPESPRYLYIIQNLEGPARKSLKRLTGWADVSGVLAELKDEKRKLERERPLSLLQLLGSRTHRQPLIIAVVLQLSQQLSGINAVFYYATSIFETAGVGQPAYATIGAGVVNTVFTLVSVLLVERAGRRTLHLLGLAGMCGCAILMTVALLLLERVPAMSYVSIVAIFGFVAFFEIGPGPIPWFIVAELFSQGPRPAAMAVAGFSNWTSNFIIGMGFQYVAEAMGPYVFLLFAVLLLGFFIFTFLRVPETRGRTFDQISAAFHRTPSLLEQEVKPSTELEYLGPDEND", "outline": "(§1)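 HEK-293T cells expressing individual GLUT4 alanine mutants were stained 48 h post-transfection with anti-GLUT4 scFv MAbs (2 μg/ml), then biotinylated secondary and streptavidin-PerCP, and read by high-throughput flow cytometry. Where used, cytochalasin B (10 uM final) was given for 30 min before and during primary antibody staining.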"}, "hsGLUT4 R416A": {"target": "T2, hsGLUT4 R416A (human, UniProt P14672 1-509)", "T2 sequence": "T1 sequence with A310S, R416A", "outline": "as §1"}, "hsGLUT4 G504A": {"target": "T3, hsGLUT4 G504A (human, UniProt P14672 1-509)", "T3 sequence": "T1 sequence with A310S, G504A", "outline": "as §1"}, "hsGLUT4 V306A": {"target": "T4, hsGLUT4 V306A (human, UniProt P14672 1-509)", "T4 sequence": "T1 sequence with V306A, A310S", "outline": "as §1"}},
  "note": "Positions count from the first letter of the chain named.",
  "data": [
    {"binder": "B1", "values": [
      {"measurement": "% of binding to wild type GLUT4", "setting": "hsGLUT4 S310A", "result": 20, "unit": "%"},
      {"measurement": "% of binding to wild type GLUT4", "setting": "hsGLUT4 R416A", "result": 70, "unit": "%"},
      {"measurement": "% of binding to wild type GLUT4", "setting": "hsGLUT4 G504A", "result": 71, "unit": "%"},
      {"measurement": "% of binding to wild type GLUT4", "setting": "hsGLUT4 V306A", "result": 29, "unit": "%"}
    ]}
  ]
}
